From IntAct's records for PubMed 20118266

B1: Flagellar biosynthesis protein FlhA (Salmonella typhimurium), P40729 (parent)
chain: MANLVAMLRLPSNLKSTQWQILAGPILILLILSMMVLPLPAFILDLLFTFNIALSIMVLLVAMFTQRTLDFAAFPTILLFTTLLRLALNVASTRIILMEGHTGAAAAGKVVEAFGHFLVGGNFAIGIVVFIILVIINFMVITKGAGRIAEVGARFVLDGMPGKQMAIDADLNAGLIGEDEAKKRRSEVTQEADFYGSMDGASKFVRGDAIAGILIMVINVVGGLLVGVLQHGMSIGSAAESYTLLTIGDGLVAQIPALVISTAAGVIVTRVSTDQDVGEQMVGQLFSNPRVMLLAAAVLGLLGMVPGMPNLVFLLFTAALLGLAWWLRGREEKAPEEPQPVKMPENNSVVEATWNDVQLEDSLGMEVGYRLIPMVDFQQDGELLGRIRSIRKKFAQDMGFLPPVVHIRDNMDLQPARYRILMKGVEIGSGDAYPGRWLAINPGTAAGTLPGEKTVDPAFGLDAIWIESALKEQAQIQGFTVVEASTVVATHLNHLIGQFSAELFGRQEAQQLLDRVSQEMPKLTEDLVPGVVTLTTLHKVLQNLLAEKVPIRDMRTILETLAEHAPLQSDPHELTAVVRVALGRAITQQWFPGNEEVQVIGLDTALERLLLQALQGGGGLEPGLADRLLAQTQEALSRQEMLGAPPVLLVNHALRPLLSRFLRRSLPQLVVLSNLELSDNRHIRMTATIGGK
partner: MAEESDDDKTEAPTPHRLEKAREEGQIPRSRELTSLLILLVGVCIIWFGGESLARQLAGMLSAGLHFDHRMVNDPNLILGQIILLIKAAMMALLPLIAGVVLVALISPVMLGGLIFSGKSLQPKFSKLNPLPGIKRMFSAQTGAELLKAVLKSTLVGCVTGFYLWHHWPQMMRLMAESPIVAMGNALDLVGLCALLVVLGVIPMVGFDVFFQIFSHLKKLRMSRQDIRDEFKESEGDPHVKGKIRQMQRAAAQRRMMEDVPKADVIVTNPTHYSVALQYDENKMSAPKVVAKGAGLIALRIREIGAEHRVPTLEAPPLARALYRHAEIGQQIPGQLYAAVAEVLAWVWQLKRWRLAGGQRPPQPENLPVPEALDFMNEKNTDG
B2: Flagellar biosynthesis protein FlhA (Salmonella typhimurium), P40729 (parent)
chain: B1 chain

Variants of: B1
Conditions: with flhb_salty flhB
For G368C, the “effect of a mutation on the interaction” value was “increasing interaction strength”.

Variants of: B2
Conditions: with flij_salty fliJ
With G368C the “effect of a mutation on the interaction” value was “increasing interaction strength”.
